# In the DeepSol protein solubility set:
# Experiment: soluble on expression in E. coli; label from the status in PepcDB or PDB records
row,Sequence,soluble on expression in E. coli
1,LTARFTNTELNGYQRLMSYFEEMVKVEDDVCNANKCLLVKLSAEVSDLSEPMRIALRRGADKTIQAMAECIDVGIQDGSIPSGDSALLARQIYYLWNGASLLNKLYQDQEALTQSLTYTQHLLQNTRTCP,not soluble
2,ANEVNVYSYRQPYLIEPMLKNFEKDTGIKVNIIFADKGLVDRVKQEGELSPADVLLTVDISRVMEIVNADLAQKIDSKVLEKNIPAQFRDSNDQWFGLTTRARVIYTSKDRVGKLPAGFDYLDLAKPEYKGKVCVRSGKNSYNVSLFAAMIEHYGIEKTKAFLEGLKANLARKPQGGDRDQVKAIKEGICDYSIGNSYYYGKMLDDEKQKSWAEAAIINFPSGEHGTHKNISGVVIAKHSPNKANAVKLIEYLSGEKAQGLYAELNHEYPVKEGIEPSAIVKGWGTFKSDTIKLEDIAKNYEAALKLVDEVKFDDFSEKK,soluble
3,MTENTLDPAADLLERLGDKRFRTILADPPWQFQNRTGKMAPEHKRLNRYGTMSLEAIAGLPVERLTADTAHLYLWVPNALLLEGLKVMEAWGFTYKTNLVWHKIRKDGGPDGRGVGFYFRNVTELVLFGVRGKNARTLAAGRRQVNFLATRKREHSRKPDEMYGIIESCSPGPYLELFARGARDRWSVWGNEADENYYPRWNTYANHSQAEICPFEAAALEHHHHHH,soluble
4,MFYTTDTNQHGLPHDPFKAIVAPRPIGWIGSKGREGVLNLSPYSFFNAISDRPKLVMFSSSGRKDSLRNVEETGVFTANLVSRHLVDRMNASSAPVAYDVDEFALAGLTAVDGRVVDAPFVREALAVLECRATQIQQLTDIEGKPTDSWMVIGQVMAIHIGETIIRDGRIDMGLARPVARMGYMDYCDGGSDVFQLQRPSAAPSV,soluble
5,MSLAQLIFDEEKVTSVIDRIVKRTFQMDFAWDWPGGVAFYGVAEAYEATENEEYINLLKTWVDEQLEDGLPPLSINGVSIGHTLLFLHKVTGDDVYLETAAEMAEYVLHKAPRFGEGILQHTVNAAEYVFPEQAWADTLMMAGLFMLRIGRVMEREDYFEDGLRQFHGHEDVLQDPVTNLYYHAWDNKAQNHLSGIYWGRANGWAALTMAKALPLIEVTHPSFMIIDGSLRDQLSALVRLQDESGLWHTILDDPDSYLEVSASAGIASALMSSGKLYTKYVQKSLAAILDAVEEDGRVSRVSAGTAVMKNAEGYKQVPYKRIQGWGQGLALTFLADVLKTKKRLYQEGHHHHHH,soluble
6,MINMKPQYYLGMMSGTSLDGVDIVLVDFSQDPQLILSDFFPMPEDLREKLTTLIQVGETTLQNLGELDHKLALLYSDCVNAFLQKNTFLPNQIQAIGCHGQTVWHSPNSQFPFTMQLGDMNLLAAKTGISVIGDFRRKDMAWGGQGAPLVPAFHEAVFSNSNFATAVLNIGGISNVSILFPNQAVIGFDTGPGNTLLDQWIEKHQGLRYDENGEWAAKGNVNKVLLDELLNEPFFSLPAPKSTGRELFNLVWLNHKIAKIREKLTALSVEMSFRPEDVQATLVELTVTSIVNALNQLQTDLPKRLLVCGGGAKNSLIMRGLHDNLLDWQVSTTTEQGFDIDYVEAAAFAWLAYCRINNLPANLPSVTGAKSAVSLGAIFPKD,not soluble
7,VIEPARGLGDGNIERKIRGLLDSWMTWNHSFQGSCMFLDAWNDAADKNCPLQAALRKAIDTWLSYLEIQIAKGKENQEFISDLDTRQATFDLYGQYLSAHVFYSIKGEEESLRLFWQGIDNLLARWRG,not soluble
8,MTEDERFAWLQLAFTPYIGAESFLLLMRRFGSAQNALSAPAEQVAALIRHKQALEAWRNAEKRALARQAAEAALEWEMRDGCRLMLLQDEDFPEMLTQGLTAPPVLFLRGNVQLLHKPSAAIVGSRHATPQAMRIAKDFGKSLGGKGIPVVSGMASGIDTAAHQGALQAEGGTIAVWGTGIDRIYPPVNKNLAYEIAEKGLIVSEFPIGTRPYAGNFPRRNRLIAALSQVTLVVEAALESGSLITARLAAEMGREVMAVPGSIDNPHSKGCHKLIKDGAKLVECLDDILNECPGLLQNTGASSYSINKGIPEKRITAVQTASDQLSLPEGKMPSEKTENRPVGGSILDRMGFDPVHPDVLAGQLAMPAADLYAALLELELDGSVAAMPGGRYQRIRT,not soluble
9,MLKKAEKFEKIFRLESSLRALERVRDFLSQESYERLRELVLIRLKGIKIEEKELNSKVAVAFSGGSDSSATYKILAWAGFKVYPITAKLPQMRDEVLKRLESGGAIFVEIPEYMEVMEDLIRKRTAICGRCHSMVMRAVEERARELGAEIVASGDMLTVGSGSIYEKDGIVILNLPAFLALDKKELLEILGWKKYELKYGCPLWKEAAKRAPVLKKFGLQRVLRELRGGALPKEFAKELIIDILRA,not soluble
10,MSKHKVSPATIAKNKKALHDYTILEKFEAGIVLQGWEVKSIRAGKVQMVDSHVHIKHGEAWLFNCLITPLLSASTHVVADAAATRKLLLNRREINKIMGRIEQKGFTCIPLSMYWKGPRVKVEIALAQGKKVHDKRQAQKDKDWAREKDRLFKKAYK,not soluble
11,MSLMTSVVPSFCHQDRRSNQRMKGLSPLAMAQVVTLGVLEPRAQGAVRWRRCWPERSTVGAIEAQRHWRPYLELSWAEKQQRDERQSQRASRVREEMFAKGQPLAPYNTTQFLMNDRDLEEPNLDVLHGPSHSGSGGENEAGDSDGQGRAHGEFQQRDFSEAYERYHTESLQGRSKQELVRDYLDLERRLSQAEQETRRLRQLQGCSSRQPCQQVEELAAEVERLRTENQRLRQENEMWNREGGYCDQEKPASEGTPWPKVEAPFQTHTGQLGHREAGDR,soluble
12,MSLDISFQIQDAVASVIRAPLASPFRIATGQHDELENVFLKLTTRDGVSGYGEAAVASHITGETVPGTLANLQNAAAALRGQTVDDAESACRQFAAAFAGNHAGLAALEMALLDLSSRVRGIPFYRLFAPVAALEPRLAFSTDITVVIGSLDEARATAREFASRGFKAFKIKIGRDEQLDLARVLAVHEIAPDSQIILDANMGFSAGSMLAFLDRLAAKGVRPVLLEQPVPKMDWDGLSEITAALTGSETLVCADESVGSLADARRAIDSNAVSAINVKFMKSGILEGAEIARLAASRGIRLMLGAMMESALAVTASAHFAAGLACFDYLDMDTTFFLKGELAHSPYLDEHGRFDLHDAGPGIGVEPRFSEGHHHHHH,soluble
13,MKGLCSSDTRQYLPGHQLWEAPVQIRRYSAVIHHATKCQWGVIPSRTINVSLHQTRRMRVAAVGIGGAGGRIVERLWQDNERRETTYLGAACAVDTDTEALDELDALPADRRYAFGLSETNGTGTNGDRTSGTAAIEDERLEVRRAIDELVTSDIDAVVLVAGLAGGTGSGATAHIADALREVYSIPVYCLSVLPAGRDDDAAANTMQALRALESTVDGQILFDNEAWLGSGQTVESASETLNETIVARLGALFAAGEATAPDAVGQSVVDASEIINTLSDAGFTTLGYASQDLQTGAGSGDGTVIDQLKNRFLGDNADDVDEIEAYNAVETTLRRAVRGKLTAQCELDSADRALAVFAGPPAWLIRDAVTDGRRWLTEELQSPEVRSGLEHHHHHH,not soluble
14,SQEVMKNLSLNFGKALDECKKEMTLTDAINEDFYNFWKEGYEIKNRETGCAIMCLSTKLNMLDPEGNLHHGNAMEFAKKHGADETMAQQLIDIVHGCEKSTPANDDKCIWTLGVATCFKAEIHKLNWAPSMDVAVGEILAEV,soluble
15,IQVFLSARPPAPEVSKIYDNLILQYSPSKSLQMILRRALGDFENMLADGSFRAAPKSYPIPHTAFEKSIIVQTSRMFPVSLIEAARNHFDPLGLETARAFGHKLATAALACFFAREKATNS,soluble
16,SFTSQQWKHLSNDFLKTQQEKRHSWFKASGTIKKFRAGLSIFSPIPKSPSFPIIQDSMLKGKLGVPELRVGRLMNRSISCTMKNPKVEVFGYPPSPQVSGHCKNIPTLEYGFLVQIMKYAEQRIPTLNEYCVVCDEQHVFQNGSMLKPAVCTRELCVFSFYTLGVMSGAAEEVATGAEVVDLLVAMCRAALESPRKSIIFEPYPSVVDPTDPKTLAFNPKKKNYERLQKALDSVMSIREMTQGSYLEIKKQMDKLDPLAHPLLQWIISSNRSHIVKLPLSRLKFMHTSHQFLLLSSPPAKEARFRTAKKLYGSTFAFHGSHIENWHSILRNGLVNASYTKLQEWEKDSTGCPPRMSWSRDTTG,soluble
17,MGSDKIHHHHHHMRVTADEGLYGEEATQGTEFRFHCETLFSRSSLHRFEIGLHRHSAFLQILYIFGGEGDALLEGRIEPIRPPVAIIVPPGFEHGFRFSRDIGGVIVTMLPGALPASVQALLLRNFQQPVLLRLRDFAEKDGLRSGFERISAEYEAREIGRDAMIEGQLATVVTLLSRAARPLLETSGEGLAEQRFERLLSLIARHIREPQKAGFYAGKLGLSETHLNRLVRSVSGLSLQRLIAKRQIEIAQQELIFTVSSVQMIAEGLGFADPAYFNRFFKRETGMTPRAWRLAEQRKMGDTGARLTPPQTSILASSR,not soluble
18,SRFRFCGDLDCPDWVLAEISTLAKISSVKLRLLCSQVLKELLGQGIDYEKILKLTADAKFESGDVKATVAVLSFILSSAAKHSVDSDSLSSELQQLGLPKEHATSLCRCYEEKQSPLQEHLRACSLRVNRLASVGWRVDYTLSSSLLHSVEEPMVHLQLQVVPAPGTQAQPVSMSLSADKFQVLLAELKQAQTMMTALG,soluble
19,MSLKVRLEDVAKRLGVSVATVSRSLAGHPAISSETRGAVRAVASELGYRIPTQGRRGKKSSTKLIGVVVGALHNRFMTLLLTHLHDALQELGYQMTLVIDSMNDSQNLQALRPLIEGYLDGLIFATATLDSPVIAEMQRRAIPLVLVVRSVDDVRVDTVEIDNVHAGAVAAEHLYQLGHRRIGLVMGPQNTSTSRDRAKGALTYLADIGISSEAVTLMWSDYTTEAGYSSAMAIFNEADPVTAIVAGNDTIALGVLEAAARRAIKVPEQLSVIGFDDMPLAGSPLVALTSIRQPVRAMARTAARRLIDRIRAGGMGAPVHDVLPIQLVRRETTGPREGHHHHHH,soluble
20,AHHHHHHGSTKRVKVITDPEVIKVMLEDTRRKILQLLRNREMTISQLSEILGKMPQTIYHHIEKLKEAGLVEVKRTEMKGNLVEKYYGRTADVFYINLYMGDEELRYLARSRLKTKLDIFKKLGYKFDEEELLNVMDRILEKEHEVKVEISKEIENVEDSLKEFSNEDIIHAIEWLAMARLAQDEEYIELVKKLGQILKR,soluble
21,MGSDKIHHHHHHMARLAKIKVKTLEQRLWDTADALRGNQEPSEYKHVVLGLVFLKYISDRFEERRRAIETSLSDPNSEEYIPNEARRSEFLEDRDEYASHNVFWVPELARWGYLQDNAKLPKIGQQLDQAMDLIEKENPIIRGVLPRNYGREGLDKSRLGQLVDLIGSIGFTESDDHGSDDVLGRVYEYFLGQFAGKETGKDAGAFYTPRSVVKTLVEMLEPFHGRVYDPACGSGGMFVQSAEFVTAHGGERTDISVYGQEFTDTTWKLAKMNLALRGIEADLGDRSADSFTQDLHRDLRADFIIANPPFNVSNWWNAKLADDPRWKYGTPPEGNANFAWVQHFLHHLSPKGTAGFVLSNGSLSSKSSGEGEIRRKLVEADLVDCIVAMPDKLFFNTGIPVSLWFISKERHGNGHRARQGEVLFIDASKLGRMENRRLRVLDDDRDIAKIAGAYHAWRNHDGGYEDVPGFVVAATLEEIRQHDFVLTPGRYVGTKEAEADWEPVEDKIARLTGELYAEFERGRKLEEVVRERLGGLNAD,not soluble
